Earlier results on one substance are cited in US20220033450A1, “VIRALLY EXPRESSED INHIBITORS OF PDZ DOMAINS, SUCH AS PICK1 AND USES THEREOF” (University of Copenhagen, priority 2018, published 2022).

A value given as a limit tells only on which side of the number the result lay.

In this data set the target is T1, PDZ3 of PSD-95 (Homo sapiens, UniProt P78352).
T1 construct: specificity towards PDZ3 over PDZ 1 and 2 in PSD-95 (Toto et al. 2016)
The following applies: Toto et al. 2016; 'supposedly'.

T1 sequence (P78352 313-393 limits assumed): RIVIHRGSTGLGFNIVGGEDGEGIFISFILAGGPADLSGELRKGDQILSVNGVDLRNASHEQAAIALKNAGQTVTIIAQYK

For the substance YKQTSV, the “specificity towards PDZ3 over PDZ 1 and 2 in PSD-95” value is given as over 15 fold.
